# According to article doi:10.1101/2024.03.21.586168 (bioRxiv, 2024):
# T1: recombinant CD135 (Flt3) (UniProt Q00342 28-544)
# T1 sequence (looked up): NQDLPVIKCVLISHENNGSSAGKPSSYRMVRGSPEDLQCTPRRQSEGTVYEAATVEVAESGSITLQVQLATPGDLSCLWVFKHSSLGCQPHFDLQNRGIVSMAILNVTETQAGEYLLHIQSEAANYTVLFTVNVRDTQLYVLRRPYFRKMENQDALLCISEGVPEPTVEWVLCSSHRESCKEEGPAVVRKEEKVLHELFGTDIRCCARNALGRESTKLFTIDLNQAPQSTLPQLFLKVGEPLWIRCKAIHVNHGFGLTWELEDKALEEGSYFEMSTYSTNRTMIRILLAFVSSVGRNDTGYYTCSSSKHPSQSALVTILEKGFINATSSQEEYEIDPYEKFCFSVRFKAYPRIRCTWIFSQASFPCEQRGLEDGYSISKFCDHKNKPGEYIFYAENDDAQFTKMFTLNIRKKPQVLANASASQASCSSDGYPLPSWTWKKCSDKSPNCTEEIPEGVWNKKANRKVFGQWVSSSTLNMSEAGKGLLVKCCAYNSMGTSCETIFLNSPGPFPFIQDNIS
# Legend:
# recombinant CD135 (Flt3) [1] = biological target: recombinant CD135 (Flt3) (UniProt Q00342); test: ELISA
# recombinant CD135 (Flt3) [2] = biological target: T1, recombinant CD135 (Flt3); test: ELISA
Kd (recombinant CD135 (Flt3) [1]) [nM],Kd (recombinant CD135 (Flt3) [2]) [nM],Molecule
0.16,,Flt3L-SA (murine Flt3L fused at its C terminus to murine serum albumin through a (G4S)2 linker)
,0.16,"native, soluble murine Flt3L (WT) (ligand, mouse, UniProt P49772 27-189, looked up) GTPDCYFSHSPISSNFKVKFRELTDHLLKDYPVTVAVNLQDEKHCKALWSLFLAQRWIEQLKTVAGSKMQTLLEDVNTEIHFVTSCTFQPLPECLRFVQTNISHLLKDTCTQLLALKPCIGKACQNFSRCLEVQCQPDSSTLLPPRSPIALEATELPEPRPRQ"
